Data reported in publication PMC11316819.

These substances were tested against EEEV PE6 virus-like particle (Eastern equine encephalitis virus, strain PE6) (assay: BLI).
ApoER2_(iso2) LA1-3-Fc (Fc fusion) showed a Kd of 705 nM. S. vulgaris VLDLR LA1-8-Fc (Fc fusion) showed a Kd of 11 nM. For “VLDLR LA1-2-Fc (from UniProt P98155-1 28-113) (Fc fusion)”, the Kd was 505 nM. Work on “VLDLR LA1-3-Fc (from UniProt P98155-1 28-152) (Fc fusion)” yielded a Kd of 363 nM. Substance “VLDLR LA2-3-Fc (from UniProt P98155-1 70-151) (Fc fusion)” has a Kd of 1800 nM. Substance “VLDLR LA2-4-Fc (from UniProt P98155-1 70-190) (Fc fusion)” has a Kd of 1100 nM. “VLDLR LA2-5-Fc (from UniProt P98155-1 70-231) (Fc fusion)” was tested, and the Kd was 42.5 nM. Substance “VLDLR LA3-4-Fc (from UniProt P98155-1 111-190) (Fc fusion)” has a Kd of 3900 nM. Work on “VLDLR LA3-5-Fc (from UniProt P98155-1 111-236) (Fc fusion)” yielded a Kd of 32.3 nM. Substance “VLDLR LA3-6-Fc (from UniProt P98155-1 111-276) (Fc fusion)” has a Kd of 71.5 nM. Substance “VLDLR LA4-5-Fc (from UniProt P98155-1 152-236) (Fc fusion)” has a Kd of 11900 nM. With “VLDLR LA4-6-Fc (from UniProt P98155-1 152-275) (Fc fusion)” the Kd was 2300 nM. Work on “VLDLR LA5-6-Fc (from UniProt P98155-1 191-275) (Fc fusion)” yielded a Kd of 4200 nM.
